test: soluble on expression in E. coli; label from the status in PepcDB or PDB records

| Sequence | soluble on expression in E. coli |
| --- | --- |
| GPGSMLSRIKKQQAETRDAAGQSHSSGGGPSTASSEPVAILRLKKDLDNLDGIRSTIDIPDPQNMLRMKVTVRPPYPSIWQGGIFEFLLEFREDYPYEGPRVRYLGPYRIWHPNIEGDEYMEGEGGLRGDVKNTWGVCLSFQTEWKPTMSLRDIIIMIELLFQDPNPDDPLHGTAKQAAQMMKDNPAKFRDKARRWMRGGYIE | soluble |
| GPGSMNCVQQGKVNVIADNLIPDGKMTEMIIVMKSSVSARANGECLPCDAAQLCEDLTEDIIPYVDNHYRTDADRDNRAIAGLYMGSIQASRLCITRHDLFAYPGMFSGFLSSNWNGIGTDSDHIEALRCDPAAFQAAMKVLFRCIGDDNTYRAAFEADNALLAELGAACERRIYAGSHSWQVWRQAAADFPPMLFKDLSFFPRH | not soluble |
| GPGSMPASASTRTVGDSSKNASTSSVTNAVKDPNVTLSRADVEAAFAFFDLHNHKCLKPATLKERLSAFYPNMTSSEYKFLLDEASGAPFTVDTLWNIIDNFNTTRTAMPPAVAGSLRFDPIREAFRIYDPQGSGSVDVVVLADIMKTIGFGDLSPNELTLLIRPADFDNDGKISLEDFMNFLSNHR | soluble |
| GPGSMPPPAPPALEKKTAAGVEVDLTKMVLDTSSFLRASAQRPSMRYPSRASVSNSAFISAQEYDDLRARYSQAKRELLKVSDIQKDLDFARFELTRSQEEMKLLRASNHNLKNEVEEYVQRAEKEHKARMSLEAKMSAEGATRTEEIEFLKKTIDELRAENAKRLDYMTQQQEDEFQARLQSMREELAGAAEELARLTAEAAQAQKARELSESKLTAALTDLEKSRAVVDDCKARIDALQKECHALEQQHRDFVQQQERQNAAYLEEQKALNEERVHQVAESKNAAIAEMQEELHLWKEKTKTTAEELAAARHAASQLQDDVKQLTADRAKEVRRLAEEHRLALCELQLQMEAAIREARGSKTSLEEEAQSLRRQLAQVSTELSTVAGVLAQRERQLAKAEEELLRTKDRCVAAEQENAQLASDAQLNAEAADEAAARVERLMRQNSDMEEEFSKDLREAKDRIRTLEATLMQSKGELSALRKEQIKSADDGLAATRDLRAQAEALMEECTALKAQAGERRRLEEMARDYCQRFEAERTKVGTLEAELSAAVGRCTAVEAKLEELSRRVISQAVSRSPMQTLHPNATAASLSCHGKHRSVSSGQSYAPTGGSSMKRARTEDARVFAISGFDGNDVLLAVKQLPNVAIAECKSNMPVPSNLTHLITNGQLTIKLLTALVRGCWVLPESYVVDSLKEQTWLREEDYGFQHEEPPLLKKRIALTEAFMACKHYSTASLLLKEGGAILVDDPEQADILLCTNAEARSTQNGWNWEKMVEIIYPLKIQ | soluble |
| GPGSMQISPPFCGCLSEMYARSLVKQGAFSCFRSCVRVGSVAIIGGEAHMFKQLYKRDEKLRLYRSLIKGASRFPLRSRRDIVTEEVRSSFRHPLNDSLTNEEVDRKLVLGWERAEAIKTYAQNMYWFHSRDEVSKEMMHHSLERDRQRVREMERCNTVGAAPRKTPEVTEFKSSMYNVHPDYYEKIGQKPLTHTRDIWRARGQYGSDVGGPRQKFFVRRFKALFPQGW | not soluble |
| GPGSMRALTFRSSLCAGRTAVGAMCFGRLWASSTSATEGSEKQNVTEDSETVSVAPVSPEAYAKLEKELSDAKERIAELKKEVLYRAADAENARRIGSEDVTKAKAYGITSFGKDMLDVVDTLERGLEAITKLPQAEVEGHKTLSSIHTGIKLSLKLLLNNLAKHGIEKLDVAVGAKFDPNFHDALLKVPPTAEAPPGHISTVLKTGYKIQDRVLRASQVGVASDD | not soluble |
| GPGSMRGKRFATPTGQPGMRQGGYTQLHAVSASTSPGRRPTAKHCAPSASQKELFTSQALSRPRPTEAHALSSSTPERRFQAVQRSSTQSSMPSTSVHHMLNELVDLSHSIAALLEQGQVLSLTAAPSAADRQQEASLKTQEIERIVRRVEAHFVDRIQSLETLNASLSEEVRQLRGALATQRTNGAEGRANVVQDIRGGDLQEDSKTLDACERASWDEPGNGAASSEVEHLRRVLMAEKRQRLRVEEQTQSLTEQHAKVVGTLERRLKKQEEQLYDLIAAIDRGYGGGSVTTSASPTRCTERGSSHRLPTPRHLLRQQLAQHQQTQRALQQYKENLRLEPPSPAGSDEVSATMKELGLDDVRRTLELIRSSKPLTVQEHHHDQEETHTAPAVCSPPHTARDGPAVVHSPRVCSQVPPPAADRAACTSGTEVDEITAFLENITKELESLDSQ | soluble |
| GPGSMRLVDLSLPLYDGMPVYDGDPPVHVTKVCTREKDGWEVRHLQMGSHTGTHVDAPAHMHEDGSNLDEVPLTRFCGPAVVVKVADSSFPPNKGLLFYEAVPADCVPRIVAANAPFVGGPLEEKAERLLLGCGIITYTGLVNVEQLIGESFTFYGLPLRIRGGDGSPVRAVAVMDDK | soluble |
| GPGSMSAETLACTYAALMLSDAGLPTSAENIAAAVKAAGVEMRPTLPIIFARFLEKKSVETLMAAAAAQAPTAASAPSPAAGAASAAAAGGKVEDKKKDEPEEEGDDDMGFGLFD | soluble |
| GPGSMSNSGCGLPGDVDPDLPLTPDGVTYHVACSSERLADRIILVGDPDRVKMVSTYLDAGSIVYEASHREIKVVTGAYHGVPVTVLSTGMGTDNVEIVMNEVHILKEYDTQKRRWRARVGDDTPADPLETPFDPSRVKLIRVGTCGTPNDAVQIGCLAITRYAVGMDNTCQYYDAPAVNHTVDVKEVLAKVQATSLGKVQVYATKAAPAITQGLVDACTALNRKVGVSEQQPYYVGTTCSGSGFYGCQGRSVGRFRGHLTVPHLTEELGDLRFNVSEGEQRVANIEMENSALCYLSNLLGYQAGTVCVVIARRSRTNRAFATPEQLAKGLSHAITIALETLIKE | not soluble |
| GPGSMSSSPNPMGAGTASATPKSTGGPEASPGSVRRSTLYAVLNVSHTATLEEITAAYRKLALVYHPDRPNGLQWKFQEIQRAYEVLSQKDARAKYDILLRGKLAVKNFKRPPPLESVLQPVYALLADGAFYEFEAASSKLKCSFHYGDGIQFNGDCGSFIGLAGDGFIYWTISGRGFASRLCKAGSTFALSSVRVMYRSNMGLAKMPLKRSSLHSSHTCRPAGSSGDKRAVRGSTGDAGCSERAKSTTGARAAKMSEADRIKKALLNKERSRNLKRRMETLKEEEIEARNSLQQDLWGQFSSLHTTAEVAFRCTLQGVAVPVEMALWMGYKSPEEVMLRSSGACSSLFIAEQVSLQTSSLWVDPLQSDYFNDDEMLREGCDGNKEDRKHCTSNGRDVTARHKPDSADSSPCSSQSSPASDGAPDGDACRGRSATASGTHSPILHRLNNGATAVTGASDGAEVAKKE | not soluble |
| GPGSMSSTQTTSVFFTDVPLFVEERSLRKHFESVGHITDFRLLGPPVGKDFRYGFAEYLDSTSAEEAIARLNGTSFGGRPMKVMSAAATRGRKRQRQQNASHQQQPAPRGGMTFPRGYTDPVLGRDDTSIFECLQGMQQSDAYEAVEQLRVLVLERKNEARKLLENNPALRLAVVMILQHAGRLPFGPLPPEAIQHGGIRVDAPVPAAPAEGEGEKVEPPREQNDEIIEILSKLSEEEVERIVSMTDEDLNRIPDVSQRQQIGVLRERLLELAADLE | soluble |
| GPGSMSYHGPNREGLGEDLEEAEEAFIDLEDPNIEILDEAALPEEDGDDASDVVDNHAGMDVQDRGNEEEGEGLHLGVEVEDLNAAPDYEPEHDDAFATFVAPAKKPLHAIAVHPQNERIFAVGGEGEEVYILEMDHAGKEPALKATLTGHTDTVSLLSFSPNGQWLASGSLDSSVAVWSTETWERKHTLGDLYGEIMTLLWHPSSLILAAGADDAQAAMWNVVKGTLIMYFVGHRGAVTCTAWSPDVKKLVTGSSDGTVAVFNPKTGDQELCISKDLSPDNAGITALQFVNADQCVVGCEDGTLHVISLRSGKVATHFEDLHEQAIESLAINRSSLLLLTASCDCRVIVWNVADFSPRATVEVGESVIPALWSHSNLIAAGCSDGNIRVWDGRSSAQDPLALLMGHRRMVLGLVTTSTVLASTSDDGTAKFYRFAETFR | soluble |
| GPGSMTNFSPAKCEMDALFLTSAGTDGHPLAQPFWSSSRSSLPTFDAHRRGTARGRLQNPALIDSIRRSEGSRVGQDTCRYMQAAAASSQKAVHQLLSRLQTYRSFKPFLSPPAPYRDNLFTDDRGFSNFHGPSYGRGSTATVSRDQLWQMVDGILDTSVAQLLQHNAEGHFIMTLQSTLGLEAPISTAKSGTVIESRKAATPAIKGGATELASEERTPAGGPRQPLPPALQKTAVMSSFAPASALADRWALDHPSATAAAIEEQHHAWAKFEQQRQRTSRCFYLQAMQEQLDVLQAEQARDAADTTHSPPSRGDRSHRYLVDMHSPSDSEDAVAKTEEERQQALWHTFHDGPVLGVGASESLHETALGVPGIVSAYLESTDLQDWLHCSWAHRTHRHESAALRIQCAYRVYRARCKVREMRYERRQAFLASLSAERKARQVWDLALQVQKDTTTTTSGTDSTLRALQFFINKVNAVVAKHRARKQYQQRQDAEICRYAATRIQAVYRGHRTRAFVTELRHPEIVALRKHLQQENCAKLIQTCWRRYTAQRQWWRARHAACVLQSMYRCYAARRMLAERRYQRSLEASAELTKFAVQRIERWYASFLAARNAIGRAHVAELLMLQRVCRGYQGRHGVQKERRLSRFRFAVRTIEQRRWRVMEVREAIERRAALSATNAAKRTASMRDDAAVTIQRAWRQRRVLHVC | soluble |
| GPGSMTVLRRMRLTFVGTGVSSAVPVIGHLTTDCACRDAIANPSGPNRRNNVSLLISLPFAEGKSGVEWHHVLIDCGKTFRSAYMRVLAPMRVQYVDALLITHGHADAMHCVEELCGMQAEAAARYAQSVSPSSLPSSAGRTLASAVVPRTLRRVPTFLTAPTLDQIAMVSPELVTQSFHIGAAPTTGTAYHSALAATADMTARSSSSAEVLSTVMDIFYMDDTKPQRMHVPFGPLSLAASAARGVNATDAASDLPFYSFPVEHGKGYISMAWVFGRGTAFKSRQTQQQQQGSCVVYISDVSHIPATSMAFLQDLVKIDVLVLDLLAEHGAPSASHYCADEAIPLVVALAPRRTYFVGMFCSLEHHRTNEAFARELAELKMRYRDELEVVVPGSSAPAVTDTDREKKLAFVNRVCSMELAYDGQELDMDA | not soluble |
| GPGSMVFFGVGATGGTGCGPKQACFPWLENSSATRCQRGGRINLRFMLDLPQGDTEAPSTNQKRAVYAFCPIVDELQVFTLKGAGRVSSLLQKTSSSGQASITPNPAPRYLSVFGFGRSGQKEYPERDVSNSTVVIAMRDIGLCNSPDSVAIVNMVILTIGMHDGKFNYISSDADTKEPDDSESGIPSGNSSGTGSPMESVQPAMVGFRPTCDESDHCIFSPTSPCVGPIRGMKNCGACYNTPDDIEGASIQVWTSYQGTDLERQPLLSGGMDPMGFRKFAGGKFVGNIKYAVSKIENTASGMMPGDETNSTP | not soluble |
| GPGSYLMLLGLNLIRLLVCSRIAEFHSEMEKIPFATHGSNLYIRFAVGLERYLMEGSYNKLLTSRKKVPSNEYLPVVEMLEQTVRDEVANCIPESYRQLSIPAAQRILMVDTEAKVREIGAKREWALSADGTHFVFTREDDTLQKEIPFKEMIEQHINFVADLQNIV | not soluble |
| GPGTFGTAKARYDFCARDRSELSLKEGDIIKILNKKGQQGWWRGEIYGRIGWFPSNYVEEDYSEYLPETGGGSGSSMTYKLILNGKTLKGETTTEAVDAATAEKVFKQYANDNGVDGEWTYDDATKTFTVTEHSLEHHHHHH | soluble |
| GPHMAVVDDLAPGMDSSPPSEDYGRQPPQDLAAEQSVLGGMLLSKDAIADVLERLRPGDFYRPAHQNVYDAILDLYGRGEPADAVTVAAELDRRGLLRRIGGAPYLHTLISTVPTAANAGYYASIVAEKALLRRLVEAGTRVVQYGYAGAEGADVAEVVDRAQAEIYDVADRRLSEDFVALEDLLQPTMDEIDAIASSGG | soluble |
